Measured values reported in patent US11666658B2, “Rifamycin analogs and antibody-drug conjugates thereof” (Regeneron Pharmaceuticals, Inc., priority 2018, dated 2023).

Assays:
[1] = target: T1, Ac-LDL binding to His9-hMSR1 (Homo sapiens, UniProt P21757); experiment: Competition sandwich ELISA, Ac-LDL; details: anti-MSR1 antibody 100 nM, 50 pM Ac-LDL
T1 construct: human MSR1 extracellular domain expressed with a N-terminal nonahistidine tag; purchased R&D Systems 2708-MS
T1 sequence (P21757 77-451 limits assumed): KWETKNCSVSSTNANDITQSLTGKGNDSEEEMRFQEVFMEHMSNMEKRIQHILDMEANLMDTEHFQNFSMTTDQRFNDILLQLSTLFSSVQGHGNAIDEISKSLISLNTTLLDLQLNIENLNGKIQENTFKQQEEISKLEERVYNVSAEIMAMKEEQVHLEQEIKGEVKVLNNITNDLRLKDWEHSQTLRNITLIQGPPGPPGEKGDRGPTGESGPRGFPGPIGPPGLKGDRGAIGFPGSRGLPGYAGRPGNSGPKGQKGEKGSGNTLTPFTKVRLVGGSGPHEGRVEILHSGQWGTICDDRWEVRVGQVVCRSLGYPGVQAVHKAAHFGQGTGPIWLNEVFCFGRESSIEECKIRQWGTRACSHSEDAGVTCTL
Experimental: (§1) The ability of anti-MSR1 antibodies disclosed herein to block the binding of various ligands to human MSR1 was measured using three competition sandwich ELISA assays. The ligands used in the assays were: (1) acetylated LDL (Ac-LDL), (2) oxidized LDL (Ox-LDL), and (3) advanced glycation end-products of bovine serum albumin (AGE-BSA).
(§2) Anti-MSR1 antibodies or isotype control antibodies were serially diluted as appropriate for each tested ligand and added in duplicate for each serial dilution set to microtiter plates coated with His9-hMSR1. Buffer alone was also added to wells on each coat. […] This assay was conducted in four different assay runs.
(§3) Data analysis was performed using a sigmoidal dose-response model within Prism™ software (GraphPad). Percent blockade at maximum concentration of the antibody tested in each assay was calculated as an indicator of the ability of the antibodies to block the binding of Ac-LDL, Ox-LDL or biot-AGE-BSA to His9-hMSR1 on the plate relative to the baseline of the assay. In the calculation, binding signal of the same concentrations of Ac-LDL, Ox-LDL, or biot-AGE-BSA used for the assays in the absence of antibody was referenced as 100% binding or 0% blocking, while the baseline of the assay, defined as binding signal of the sample of buffer without MSR1 ligands or antibody, was referenced as 0% binding or 100% blocking. The maximum percent blockade at the highest concentration of antibody tested in each assay are reported for all antibodies.

[2] = target: T2, biot-AGE-BSA binding to His9-hMSR1 (Homo sapiens, UniProt P21757); experiment: Competition sandwich ELISA, biot-AGE-BSA; details: anti-MSR1 antibody 300 nM, 400 pM biot-AGE-BSA
T2 construct: human MSR1 extracellular domain expressed with a N-terminal nonahistidine tag; purchased R&D Systems 2708-MS
T2 sequence (P21757 77-451 limits assumed): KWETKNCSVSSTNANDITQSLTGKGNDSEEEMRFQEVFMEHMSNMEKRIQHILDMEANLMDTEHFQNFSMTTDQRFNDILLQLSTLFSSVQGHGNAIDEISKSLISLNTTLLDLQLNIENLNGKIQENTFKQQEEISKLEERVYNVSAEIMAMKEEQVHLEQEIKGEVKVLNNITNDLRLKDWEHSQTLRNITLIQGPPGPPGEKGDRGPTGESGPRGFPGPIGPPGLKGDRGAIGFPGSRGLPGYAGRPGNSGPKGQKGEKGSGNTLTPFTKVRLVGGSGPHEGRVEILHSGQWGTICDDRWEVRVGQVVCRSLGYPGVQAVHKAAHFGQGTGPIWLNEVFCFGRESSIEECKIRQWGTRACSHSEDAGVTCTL
Experimental: as §1
For the assay, recombinant monomeric human MSR1 protein comprised of a portion of the human MSR1 extracellular domain expressed with a N-terminal 9-Histidine tag (SEQ ID NO: 688) (His9-hMSR1; R&D Systems, Cat #2708-MS) was coated at a concentration of […] in PBS on a 96-well microtiter plate overnight at 4° C. for use in competition ELISA assays with Ac-LDL, Ox-LDL, or biotinylated-AGE-BSA (“biot-AGE-BSA”). […] Anti-MSR1 antibodies or isotype control antibodies were serially diluted as appropriate for each tested ligand and added in duplicate for each serial dilution set to microtiter plates coated with His9-hMSR1. Buffer alone was also added to wells on each coat. After 1 hour incubation at room temperature, without wash, a final constant concentration of 50 pM Ac-LDL (Life Technologies/ThermoFisher Scientific, Cat #L-35354), 5 nM or 10 nM Ox-LDL (Alfa Aesar, Cat #J65591), or 400 pM biot-AGE-BSA (R&D Systems, Cat #BT4127) were added to plates with His9-hMSR1, and the plates were incubated for an additional 1 hour at room temperature. (Concentrations of Ac-LDL, Ox-LDL and biot-AGE-BSA for antibody inhibition assays were selected from the approximate midway point within the linear portion of individual binding curves of Ac-LDL, Ox-LDL or biot-AGE-BSA to plate-coated His9-hMSR1.) Wells were washed, and plate-bound Ac-LDL or Ox-LDL were detected with anti-LDL rabbit antibody (Alfa Aesar, Cat #J64398) in combination with anti-rabbit IgG (H+L) specific donkey polyclonal antibodies conjugated with horseradish peroxidase (HRP) (JacksonImmunoResearch, Cat #711-035-152) and biot-AGE-BSA was detected with a streptavidin-HRP (ThermoFisher Scientific, Cat #N200). Plates were developed using TMB substrate solution (BD Biosciences, Cat #51-2606KC & Cat #51-2607KC) according to manufacturer's recommendation and absorbance at 450 nm was measured on a Victor™ Multilabel Plate Reader (PerkinElmer™). This assay was conducted in four different assay runs.
as §3, with “antibodies. Negative percent blockade numbers reflected higher MSR1 ligands binding to plate coated His9-hMSR1 in the presence of antibodies.” for “antibodies.”

[3] = target: T3, Ox-LDL binding to His9-hMSR1 (Homo sapiens, UniProt P21757); experiment: Competition sandwich ELISA, Ox-LDL; details: anti-MSR1 antibody 500 nM, Ox-LDL 10 nM
T3 construct: human MSR1 extracellular domain expressed with a N-terminal nonahistidine tag; purchased R&D Systems 2708-MS
T3 sequence (P21757 77-451 limits assumed): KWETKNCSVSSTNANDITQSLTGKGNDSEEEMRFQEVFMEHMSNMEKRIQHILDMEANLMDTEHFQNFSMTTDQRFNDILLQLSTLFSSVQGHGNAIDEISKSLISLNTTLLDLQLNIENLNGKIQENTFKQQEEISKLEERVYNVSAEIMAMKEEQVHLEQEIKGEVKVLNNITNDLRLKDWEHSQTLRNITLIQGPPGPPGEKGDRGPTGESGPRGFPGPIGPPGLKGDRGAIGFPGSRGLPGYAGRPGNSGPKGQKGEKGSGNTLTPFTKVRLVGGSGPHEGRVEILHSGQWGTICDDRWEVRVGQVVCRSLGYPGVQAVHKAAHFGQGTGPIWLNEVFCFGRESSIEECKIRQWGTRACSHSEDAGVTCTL
Experimental: as §1, §2, §3

[4] = target: T4, His9-hMSR1 (Homo sapiens, UniProt P21757); experiment: Cross-competition between anti-MSR1 antibodies (OCTET bio-layer interferometry); format: binding; details: label = first mAb (mAb-1) on His9-hMSR1 captured with anti-Penta-His Octet biosensors; value = competing mAb-2
T4 construct: human MSR1 extracellular domain expressed with a N-terminal nonahistidine tag; purchased R&D Systems 2708-MS
T4 sequence (P21757 77-451 limits assumed): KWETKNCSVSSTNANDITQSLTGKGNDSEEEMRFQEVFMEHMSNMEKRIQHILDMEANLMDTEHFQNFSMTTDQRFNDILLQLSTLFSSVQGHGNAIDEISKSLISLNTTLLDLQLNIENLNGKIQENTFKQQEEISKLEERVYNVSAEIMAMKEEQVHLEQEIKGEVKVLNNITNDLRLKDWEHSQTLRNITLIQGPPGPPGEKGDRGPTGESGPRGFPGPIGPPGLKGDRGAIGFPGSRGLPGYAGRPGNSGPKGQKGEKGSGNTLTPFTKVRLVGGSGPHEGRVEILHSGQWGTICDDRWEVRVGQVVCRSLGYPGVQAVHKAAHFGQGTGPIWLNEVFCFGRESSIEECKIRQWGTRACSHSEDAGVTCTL
Experimental: Binding competition between different anti-MSR1 antibodies was assessed using a real time, label-free bio-layer interferometry assay on an OCTET® HTX biosensor platform (Pall FortéBio Corp., Menlo Park, Calif.). The experiment was performed at 25° C. in 10 mM HEPES, 150 mM NaCl, 3 mM EDTA, 0.05% v/v Surfactant Tween-20, and 1 mg/mL BSA, pH 7.4 (HBS-EBT) buffer with the plate shaking at the speed of 1000 rpm.
To assess whether different antibodies are able to compete with one another for binding to their respective epitopes on the recombinant human MSR1 extracellular domain expressed with a N-terminal nonahistidine tag (SEQ ID NO: 688) (His9-hMSR1; R&D Systems, Cat #2708-MS), around […] of His9-hMSR1 was first captured onto anti-Penta-His antibody coated OCTET® biosensor tips (“Penta-His” disclosed as SEQ ID NO: 690) (Pall FortéBio Corp., #18-5122) by submerging the biosensor tips for 45 seconds into wells containing a […] solution of His9-hMSR1. The antigen-captured biosensor tips were then saturated with a first anti-MSR1 monoclonal antibody (subsequently referred to as “mAb-1”) by immersion into wells containing a […] solution of mAb-1 for 4 minutes. The biosensor tips were then submerged into wells containing a […] solution of a second anti-MSR1 monoclonal antibody (subsequently referred to as “mAb-2”) for 4 minutes. All of the biosensor tips were washed in HBS-EBT buffer in between each step of the experiment. The real-time binding response was monitored during the course of the experiment and the binding response at the end of each step was recorded. […] Table 17 explicitly defines the relationships of antibodies competing in both directions, independent of the order of binding.

% Blocking of Ac-LDL binding to His9-hMSR1 [1]: 105% | % Blocking of biot-AGE-BSA binding to His9-hMSR1 [2]: 96% | % Blocking of Ox-LDL binding to His9-hMSR1 [3]: 97% | mAb-2 antibodies which Compete with mAb-1 [4]: Data Inconclusive**
B1: H1H21227N-N297Q: "modified versions of 21227N (H1H21227N-N297Q and H1H21227N-N297D)"; anti-MSR1 antibody "with a N297Q single point mutation" (antibody, V domains shown)
VH: QVQLVQSGAEVKKPGASVKVSCKVSGYTLTELSIHWVRQVPGKGLEWMGGFDPEEGETIFAQEFRDRVTLTEDTSPDTAYMELSSLKSEDAAVYYCTTPRYCNNGICYDYWGQGTLVTVSS
VL: DIQMTQSPSSLSASVGDRVTITCRASQSISNYLNWYQQKPGKAPKLLIYTASSLQSGVPSRFSGSGSGTDFTLTISSLQTEDFATYYCQQSYSNFPITFGQGTRLEIKR
